Laboratory results: patent US20240124586A1 (WUXI BIOLOGICS IRELAND, published 2024)
Values belong to the binder of their own block, whether it stands above or below them.

How the values were obtained:
hCTLA4.ECD.hFc [1] = molecular target: T1, hCTLA4.ECD.hFc (human); experiment: dual-binding ELISA (hCTLA4.ECD.hFc coated, detected with hPD-1-ECD.Biotin), sample kept 4 d in human serum at 37 C
T1 construct: ECD fused to a human Fc; not biotinylated; also called Human CTLA-4: W316-hPro1.ECD.hFc (in house)
T1 sequence (P16410 36-161): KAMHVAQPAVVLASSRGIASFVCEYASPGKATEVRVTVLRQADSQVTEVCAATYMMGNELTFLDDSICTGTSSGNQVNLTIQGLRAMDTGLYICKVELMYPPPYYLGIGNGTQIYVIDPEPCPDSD
Protocol: (§1) The antibodies were incubated in freshly isolated human serum at 37° C. On indicated time points, an aliquot of serum treated sample was removed from the incubator and snap frozen in liquid nitrogen, and then stored at −80° C. until ready for a dual-binding ELISA test. The frozen samples were quickly thawed immediately prior to the stability test. Briefly, plates were pre-coated with 0.5 μg/mL of hCTLA4.ECD.hFc (in house) at 4° C. overnight. After 1-hour blocking, the testing antibodies were added to the plates at various concentrations. The plates were incubated at ambient temperature for 1 hour. Following the incubation, the plates were washed three times with 300 μL per well of PBS containing 0.5% (v/v) Tween 20. Then 0.1 μg/ml hPD-1-ECD.Biotin was added to plates and the mixture was incubated for 1 hour. After washing the plates three times, Streptavidin-HRP (Lifetechnologies, #SNN1004) (1:20000 diluted) was added and incubated on the plates for 1 hour at room temperature. After washing six times with 300 μL per well of PBS containing 0.5% (v/v) Tween 20, 100 μL tetramethylbenzidine (TMB) substrate is added for the detection per well. The reaction was stopped after approximately 5 minutes by addition of 100 μL per well of 2 M HCl. The absorbance of the wells was measured at 450 nm with a multiwall plate reader (SpectraMax® M5e). […]

[2] = molecular target: T2, human PD-1 on engineered CHO-S cells (W305-CHO-S.hPro1.C6) (human, UniProt Q15116 25-288); experiment: competitive FACS on human PD-1 CHO-S cells with 5 ug/ml PD-L1 ECD.mFc (competitor: PD-L1)
T2 construct: whole, on cells; also called human PD-1 engineered cells; PD-1+ cells
T2 sequence (Q15116 25-288, change not shown): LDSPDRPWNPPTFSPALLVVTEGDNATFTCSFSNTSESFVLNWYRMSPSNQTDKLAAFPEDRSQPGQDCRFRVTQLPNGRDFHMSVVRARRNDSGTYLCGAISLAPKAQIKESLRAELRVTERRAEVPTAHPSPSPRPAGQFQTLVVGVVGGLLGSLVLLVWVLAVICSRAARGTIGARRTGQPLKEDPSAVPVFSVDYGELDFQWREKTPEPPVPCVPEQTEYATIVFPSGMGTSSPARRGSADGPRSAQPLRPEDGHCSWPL
Protocol: (§2) In order to test whether the bispecific antibodies could block hPD-L1 binding to hPD-1 protein, a competitive FACS was conducted. […] Plates were incubated at 4° C. for 1 hour. After wash, the binding of W315-hPro1.ECD.mFc to cell expressive human PD-1 was detected by FITC-labeled goat anti-mouse antibody (abcam 98716 1:125). The competition binding of antibodies to the cells was tested by flow cytometry and the mean fluorescence intensity (MFI) was analyzed by FlowJo.

[3] = molecular target: T3, cynomolgus CTLA-4 on engineered 293F cells (W316-293F.cynoPro1.F1.Pool) (cynomolgus); experiment: FACS binding to cynomolgus CTLA-4 engineered cells
T3 construct: whole, on cells; also called cynomolgus CTLA-4 engineered cells
Protocol: (§3) 4-fold titrated Abs with 1% BSA DPBS from 40 μg/ml to 0.00004 μg/ml were added to the cells. Plates were incubated at 4° C. for 1 hour. After wash, […] 1:150 diluted PE-labeled goat anti-human antibody (Jackson 109-115-098) was added to each well and the plates were incubated at 4° C. for 1 hour. The binding of the antibodies onto the cells was tested by flow cytometry and the mean fluorescence intensity (MFI) was analyzed by FlowJo.

[4] = molecular target: T2, human PD-1 on engineered CHO-S cells …; experiment: FACS competition: blocks human PD-L1 protein (W315-hPro1.ECD.mFc) binding to human PD-1 engineered cells
Protocol: as §2

hCTLA4.ECD.hFc [5] = molecular target: T1, hCTLA4.ECD.hFc; experiment: dual-binding ELISA (hCTLA4.ECD.hFc coated, detected with hPD-1-ECD.Biotin), sample kept 0 d in human serum at 37 C
Protocol: as §1

[6] = molecular target: T4, cynomolgus PD-1 on engineered 293F cells (W305-293F.cynoPro1.FL.pool) (cynomolgus); experiment: FACS binding to cynomolgus PD-1 engineered cells
T4 construct: whole, on cells; also called cynomolgus PD-1 engineered cells
Protocol: as §3, with “4.0-fold” for “4-fold”, “0.0001526” for “0.00004”

hCTLA4.ECD.hFc [7] = molecular target: T1, hCTLA4.ECD.hFc; experiment: dual-binding ELISA (hCTLA4.ECD.hFc coated, detected with hPD-1-ECD.Biotin), sample kept 1 d in human serum at 37 C
Protocol: as §1

[8] = molecular target: T5, ECD of human PD-1 (SPR analyte) (human, UniProt Q15116 25-170); experiment: SPR (Biacore), antibody captured as ligand on an anti-human IgG Fc chip, PD-1 ECD as analyte
T5 construct: extracellular domain; the SPR method only says ECD of PD-1; also called W305-hPro1.ECD.His
T5 sequence (Q15116 25-170): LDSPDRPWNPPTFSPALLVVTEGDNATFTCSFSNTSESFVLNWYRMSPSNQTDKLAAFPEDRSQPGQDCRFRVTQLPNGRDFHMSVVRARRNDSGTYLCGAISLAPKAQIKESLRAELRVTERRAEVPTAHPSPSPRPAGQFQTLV
Protocol: SPR technology was used to measure the on-rate constant (ka) and off-rate constant (kd) of the antibodies to ECD of CTLA-4 or PD-1. The affinity constant (KD) was consequently determined.
Biacore T200, Series S Sensor Chip CM5, Amine Coupling Kit, and 10×HBS-EP were purchased from GE Healthcare. Goat anti-human IgG Fc antibody was purchased from Jackson ImmunoResearch Lab (catalog number 109-005-098). In immobilization step, the activation buffer was prepared by mixing 400 mM EDC and 100 mM NHS immediately prior to injection. The CM5 sensor chip was activated for 420 s with the activation buffer. 30 μg/mL of goat anti-human IgG Fcγ antibody in 10 mM NaAc (pH 4.5) was then injected to Fc1-Fc4 channels for 200 s at a flow rate of 5 μL/min. The chip was deactivated by 1 M ethanolamine-HCl (GE). Then the antibodies were captured on the chip. Briefly, 4 μg/mL antibodies in running buffer (HBS-EP+) was injected individually to Fc3 channel for 30 s at a flow rate of […]. […] Regeneration buffer (10 mM Glycine pH 1.5) was injected at 10 μL min for 30 s following every dissociation phase.

hCTLA4.ECD.hFc [9] = molecular target: T1, hCTLA4.ECD.hFc; experiment: dual-binding ELISA (hCTLA4.ECD.hFc coated, detected with hPD-1-ECD.Biotin), sample kept 7 d in human serum at 37 C
Protocol: as §1

EC50 (hCTLA4.ECD.hFc [1]): 0.141 nM | IC50 [2]: 1.67 nM | EC50 [3]: 5.87 nM | Top(MFI) [3]: 6650 MFI | Inhibition % [4]: 98.6% | EC50 (hCTLA4.ECD.hFc [5]): 0.14 nM | EC50 [6]: 4.71 nM | Top(MFI) [6]: 66800 MFI | EC50 (hCTLA4.ECD.hFc [7]): 0.147 nM | koff [8]: 0.000675 s⁻¹ | kon [8]: 542000 M⁻¹ s⁻¹ | EC50 (hCTLA4.ECD.hFc [9]): 0.145 nM
B1: W3248-U6T1.G25R-1.uIgG4.SP, bispecific anti-PD-1 x CTLA-4 (bispecific antibody)
heavy: EVQLLESGGGLVQPGGSLRLSCAASGFTFSSHAMSWVRQAPGKGLEWVSTITGGGGSIYYADSVKGRFTISRDNSKNTLYLQMNSLRAEDTAVYYCAKNRAGEGYFDYWGQGTLVTVSSASTKGPSVFPLAPCSRSTSESTAALGCLVKDYFPEPVTVSWNSGALTSGVHTFPAVLQSSGLYSLSSVVTVPSSSLGTKTYTCNVDHKPSNTKVDKRVGGGGSGGGGSQVQLVESGGGVVQPGRSLRLSCAASGFTFSSYTMHWVRQAPGKGLEWVTFISYDGNNKYYADSVKGRFTISRDNSKNTLYLQMNSLRAEDTAIYYCARTGWLGPFDYWGQGTLVTVLEDLKNVFPPEVAVFEPSEAEISHTQKATLVCLATGFYPDHVELSWWVNGKEVHSGVCTDPQPLKEQPALQDSRYALSSRLRVSATFWQNPRNHFRCQVQFYGLSENDEWTQDRAKPVTQIVSAEAWGRYGPPCPPCPAPEFLGGPSVFLFPPKPKDTLMISRTPEVTCVVVDVSQEDPEVQFNWYVDGVEVHNAKTKPREEQFNSTYRVVSVLTVLHQDWLNGKEYKCKVSNKGLPSSIEKTISKAKGQPREPQVYTLPPSQEEMTKNQVSLTCLVKGFYPSDIAVEWESNGQPENNYKTTPPVLDSDGSFFLYSRLTVDKSRWQEGNVFSCSVMHEALHNHYTQKSLSLSLG
light 1: SYELTQPLSVSVALGQTARITCGGDNIGNKDVHWYQQKPGQAPVLVIYRDSNRPSGIPEGFSGSNSGNTATLTISRAQAGDEADYYCQVWDSIWVFGGGTKLTVLGQPKAAPSVTLFPPSSEELQANKATLVCLISDFYPGAVTVAWKADSSPVKAGVETTTPSKQSNNKYAASSYLSLTPEQWKSHKSYSCQVTHEGSTVEKTVAPTECS
light 2: not shown
notes: IgG4 (S228P); also called U6T1.G25R.IgG4

EC50 (hCTLA4.ECD.hFc [1]): 0.0944 nM | IC50 [2]: 1.92 nM | EC50 [3]: 1.45 nM | Top(MFI) [3]: 11200 MFI | Inhibition % [4]: 94.4% | EC50 (hCTLA4.ECD.hFc [5]): 0.092 nM | EC50 [6]: 5.13 nM | Top(MFI) [6]: 68100 MFI | EC50 (hCTLA4.ECD.hFc [7]): 0.0978 nM | koff [8]: 0.000844 s⁻¹ | kon [8]: 642000 M⁻¹ s⁻¹ | EC50 (hCTLA4.ECD.hFc [9]): 0.101 nM
B2: W3248-U6T5.G25-1.uIgG4.SP, bispecific anti-PD-1 x CTLA-4 (bispecific antibody)
heavy: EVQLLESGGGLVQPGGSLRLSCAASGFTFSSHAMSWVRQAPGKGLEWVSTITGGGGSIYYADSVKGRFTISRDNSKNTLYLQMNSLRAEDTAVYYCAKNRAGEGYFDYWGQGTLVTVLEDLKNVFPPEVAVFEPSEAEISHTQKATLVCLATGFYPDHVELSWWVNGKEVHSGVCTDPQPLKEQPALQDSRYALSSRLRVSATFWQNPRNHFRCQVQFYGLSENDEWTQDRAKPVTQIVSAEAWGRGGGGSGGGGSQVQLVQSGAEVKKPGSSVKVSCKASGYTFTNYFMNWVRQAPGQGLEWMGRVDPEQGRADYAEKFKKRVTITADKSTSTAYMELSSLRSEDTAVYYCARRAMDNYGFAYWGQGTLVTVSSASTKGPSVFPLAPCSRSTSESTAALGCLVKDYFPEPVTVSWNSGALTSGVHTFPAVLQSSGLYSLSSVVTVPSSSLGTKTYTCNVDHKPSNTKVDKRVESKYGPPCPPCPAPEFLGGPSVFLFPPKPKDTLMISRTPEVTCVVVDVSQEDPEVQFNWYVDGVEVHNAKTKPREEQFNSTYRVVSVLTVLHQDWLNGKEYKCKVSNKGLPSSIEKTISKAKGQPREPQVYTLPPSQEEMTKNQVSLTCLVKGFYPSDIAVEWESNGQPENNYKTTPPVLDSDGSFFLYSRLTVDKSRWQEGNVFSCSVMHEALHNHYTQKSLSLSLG
light 1: SYELTQPLSVSVALGQTARITCGGDNIGNKDVHWYQQKPGQAPVLVIYRDSNRPSGIPEGFSGSNSGNTATLTISRAQAGDEADYYCQVWDSIWVFGGGTKLTVLPDIQNPDPAVYQLRDSKSSDKSVCLFTDFDSQTQVSQSKDSDVYITDKCVLDMRSMDFKSNSAVAWSQKSDFACANAFQNSIIPEDTFFPSPESS
light 2: EIVLTQSPDFQSVTPKEKVTITCSANSALSYMYWYQQKPDQSPKLWVHGTSNLASGVPSRFSGSGSGTDFTLTINSLEAEDAATYYCHHWSNTQWTFGGGTKVEIKRTVAAPSVFIFPPSDEQLKSGTASVVCLLNNFYPREAKVQWKVDNALQSGNSQESVTEQDSKDSTYSLSSTLTLSKADYEKHKVYACEVTHQGLSSPVTKSFNRGEC
notes: IgG4 (S228P); also called WBP3248-U6T5.G25-1-uIgG4.SP; U6T5.G25.IgG4
